# PMC6715699
# Target: T1, TRF2 (UniProt Q15554)
# T1 sequence: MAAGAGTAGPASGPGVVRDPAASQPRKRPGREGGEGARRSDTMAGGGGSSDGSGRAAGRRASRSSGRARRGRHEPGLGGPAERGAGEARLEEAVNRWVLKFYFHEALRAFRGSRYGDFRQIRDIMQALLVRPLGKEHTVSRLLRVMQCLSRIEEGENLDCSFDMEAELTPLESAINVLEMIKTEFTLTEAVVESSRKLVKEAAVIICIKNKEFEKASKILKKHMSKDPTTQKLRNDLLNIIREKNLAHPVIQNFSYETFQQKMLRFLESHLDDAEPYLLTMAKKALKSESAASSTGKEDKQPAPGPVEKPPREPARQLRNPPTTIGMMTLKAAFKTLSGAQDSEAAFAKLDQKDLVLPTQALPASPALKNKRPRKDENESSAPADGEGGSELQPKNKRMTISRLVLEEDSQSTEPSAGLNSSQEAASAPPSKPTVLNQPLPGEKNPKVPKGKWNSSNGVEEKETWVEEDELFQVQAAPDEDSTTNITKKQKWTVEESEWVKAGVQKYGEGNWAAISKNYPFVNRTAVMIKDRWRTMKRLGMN
# Assay: MST
# Details: 50 nM labelled DNA; MST in standard MST buffer (composition and pH not given), premium-treated capillaries, Monolith NT.115; 20 min at room temperature stated for the protein …
sequence,measurement,value
TTAGGGTTAGGGTTAGGG (double strand) [TELO (TTAGGG)3],Kd,12.2 nM
